The target of this test is T1, 重组人CD47带his标签的蛋白 (human, UniProt Q08722 19-139, limits assumed).
T1 construct: Immunogen and ELISA coating antigen; also called 重组人CD47 his标签蛋白; 检测抗原; not shown: his tag
Put plainly: indirect ELISA; CD47-his coated at 3, 1.5, 0.75 and 0.375 mg/L; K=(N-1)/(N*AB'-AB), mean of 6 K values.

T1 sequence (Q08722 19-139 limits assumed): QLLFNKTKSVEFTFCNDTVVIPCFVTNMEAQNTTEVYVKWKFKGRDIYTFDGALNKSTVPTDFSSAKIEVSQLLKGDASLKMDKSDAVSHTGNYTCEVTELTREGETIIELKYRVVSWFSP

B1: 单克隆细胞株7G7分泌的鼠抗人CD47单克隆抗体 (antibody, V domains shown)
VH: VKLQQSGAELARPGASVKLSCTASGYTFTDYYINWVRQRTGQGLEWIGDINPGRGKTYYIEKFKGKATLTADKSSSTAYMQLSSLTSEDSAVYFCARGGLRRFDYWGQGTTVTVSS
VL: DIELTQSPAIMSVSPGEKVTMTCRASSSVSSSYLHWYQQKSGVSPKLWIYSTSTLASGVPARFSGSGSGTSYSLTISSVEAADAATYYCQQYSGYPYTFGGGTKVEIKR
Molecule B1 returned a Ka of 1.39e+08 M⁻¹.
